Reference: patent US20260185118A1 (priority 2023, published 2026)
Residue numbers refer to the chain shown, from its start. Read-outs that look alike come from different tables or passages of the source.

Key:
bacterial and fungal = conditions: it has been shown; cited from earlier work
[1] = assay type: biochemical, Citrus sinensis L.Osbeck; conditions: 2 μg protein, 10 μg FPP, 30° C., 30 min
[2] = test system: Huanglongbing pathogen CLas; assay type: in vivo, Candidatus Liberibacter asiaticus; conditions: 7 days after feeding of CLas-carrying psyllids, qPCR
[3] = test system: Huanglongbing pathogen CLas; parameters: species or system Candidatus Liberibacter asiaticus; conditions: in vivo
[4] = test system: Huanglongbing pathogen CLas; assay type: in vivo, Candidatus Liberibacter asiaticus; conditions: for disease phenotype: 3 months after grafting infected branches onto transgenic citrus; for pathogen titer versus vector control: qPCR, newborn leaves
[5] = test system: terpene synthase CsTPS21 gene cluster; assay type: in vivo, Valencia orange; conditions: transgenic citrus leaves overexpressing, compared with blank vector control
CsMYC2 [6] = assay type: binding, Citrus sinensis; conditions: yeast AH109, SD-Leu-Trp-His with 5 mM 3-AT
CsMYC2 [7] = assay type: biochemical, Citrus sinensis; conditions: with AtUBA1, AtUBC8 and ubiquitin, anti-MBP immunoblot
CsPUB21 = assay type: biochemical, Citrus sinensis; conditions: in the presence of E1 (AtUBA1) and E2 (AtUBC8), anti-c-myc immunoblot
CsMYC2 protein = assay type: cell-based, Citrus sinensis; conditions: tobacco leaves, 35S:CsMYC2-myc co-injected, versus 35S:YFP
CsMYC2 [8] = assay type: cell-based, Citrus sinensis; conditions: tobacco leaves, 2-3 days, cytoplasm and nucleus

Molecule: C=C1CC/C=C(\C)CC[C@@H]2[C@@H]1CC2(C)C [β-caryophyllene]
- bacterial and fungal killing effect (bacterial and fungal): rapid bacterial and fungal killing effect

B1: CsTPS21-7: citrus terpene synthase protein, SEQ ID No. 7, purified as GST fusion protein (protein)
chain: MKDMSIPLLAAVSSSTEETVRPIADFHPTLWGNHFLKSAADVETIDAATQEQHAALKQEVRRMITTTANKLAQKLHMIDAVQRLGVAYHFEKEIEDELGKVSHDLDSDDLYVVSLRFRLFRQQGVKISCDVFDKFKDDEGKFKESLINDIRGMLSLYEAAYLAIRGEDILDEAIVFTTTHLKSVISISDHSHVNSNLAEQIRHSLQIPLRKAAARLEARYFLDIYSRDDLHDETLLKFAKLDFNILQAAHQKEASIMTRTKDISEVDTILGVKVKKHSGERANISIIFDFFRWDIGLIDTLPEYMKFIVKALLDIYREAEEELAKEGRSYGIPYAKQMMQELIILYFTEAKWLYKGYVPTFDEYKSVALRSIGLRTLAVASFVDLGDFIATKDNFECILKNAKSLKATETIGRLMDDIAGYKFEQKRGHNPSAVECYKNQHGVSEEEAVKELLLEVANSWKDINEELLNPTTVPLPMLQRLLYFARSGHFIYDDGHDRYTHSLMMKRQVALLLTEPLAI
modifications: GST fusion tag
- 7-epi-sesquiterpene share of the total compounds [1]: 4.79±0.11%
- (E)-β-farnesene share of the total compounds [1]: 5.54±0.32%
- sesquiterpene share of the total compounds [1]: 7.86±0.70%
- β-caryophyllene share of the total product [1]: 81.81±0.92%

B2: CsPUB21-Myc (protein)
chain: MILSWKRLRGGRGRRAGKKQPGVESGGEMELTTPNHFRCPISLDLMKDPVTLSTGITYDRENIEKWIHEDGNITCPVTNRVLTSFEPIPNHTIRRMIQDWCVENRSYGIERIPTPRIPVSSVEVFEINCNITTACKSEDQAGCRDLVAKIKKWTKESDRNKRCIVDNGAVSVLAEAFETFSKTCLDENVSVLEEILSTLTLLFPLAGEGLTYLGSASSMRCMVWFLKSGDLSRRRNAVLVLREIVSSDHRKVNVLLDIEGAIEPLFKLIKEPICPTATKASLVVVYRTITSASATEKPIQKFVDMGLVSLLLEMLVDAQRSLCEKALSVLDGLCSSDYGRGDAYNNSLIFPVIVKKILRVSDLATEFAVSILWKLCKNEEREEKTAFAEALQVGAFQKLLLLLQVGCADKTKEHVSELLKLLNPHRARLECIDSMDFKDLKRPF
- polyubiquitination of MBP-CsMYC2 (immunoblot with anti-MBP tag antibody; E. coli system with AtUBA1, AtUBC8 and FLAG-UBQ) (MBP-CsMYC2-HA): CsPUB21 is able to effectively polyubiquitinate the CsMYC2 protein in vitro

B3: YFP-CsPUB21 (protein)
chain: B2 chain
- accumulated level of the CsMYC2 protein on co-expression in tobacco leaves (immunoblot, anti-c-myc) (CsMYC2-myc): the accumulated level of the CsMYC2 protein and coexpression of CsPUB21 were significantly reduced

B4: CsPUB21DN (protein)
chain: B2 chain with C39A
modifications: left off: large carriers
- CLas detection versus vector control plants [2]: significantly lower than that of the vector control plants
- Ct values versus healthy plants [2]: no difference in the Ct values
- concentration of CLas in the susceptible leaves [3]: significantly reduced
- disease phenotype [4]: still show a healthy state
- pathogen titer versus vector control ([4]; 3 months of infestation): lower pathogen titer than the vector control plants

B5: CsPUB21DN-Myc (protein)
chain: B2 chain with C39A
- polyubiquitination of MBP-CsMYC2 (immunoblot with anti-MBP tag antibody; E. coli system with AtUBA1, AtUBC8 and FLAG-UBQ) (MBP-CsMYC2-HA): CsPUB21DN cannot ubiquitinate CsMYC2

B6: YFP-CsPUB21DN (protein)
chain: B2 chain with C39A
- accumulated level of the CsMYC2 protein on co-expression in tobacco leaves (immunoblot, anti-c-myc) (CsMYC2-myc): this reduction was inhibited by coexpression of CsPUB21DN

B7: CsPUB21: citrus plant U-box E3 ubiquitin ligase protein, amino acid sequence SEQ ID No. 1; overexpressed in citrus (protein)
chain: B2 chain
- expression of four CsTPS21 genes (CsTPS21-2, CsTPS21-7, CsTPS21-9, CsTPS21-10) [5]: significantly reduces
- interaction with CsMYC2 (yeast two-hybrid) (CsMYC2 [6]): interaction between CsPUB21 and CsMYC2 was confirmed
- polyubiquitination of the CsMYC2 protein in vitro (CsMYC2 [7]): able to effectively polyubiquitinate
- E3 ubiquitin ligase activity (auto-ubiquitination) (CsPUB21): has the E3 ubiquitin ligase activity
- accumulated level of the CsMYC2 protein on coexpression (CsMYC2 protein): significantly reduced
- interaction with CsMYC2 (BiFC) (CsMYC2 [8]): confirmed
- pathogen titer versus vector control ([4]; 2 and 3 months of pathogen infestation): significantly higher than that of the vector control
- disease phenotype [4]: show disease characteristics of Huanglongbing infection
